From the DeepSol protein solubility set

test: soluble on expression in E. coli; label from the status in PepcDB or PDB records

Sequence | soluble on expression in E. coli
MSGAVLPAVLVVPKMESVVVPIAESTVINAKDTTPSTAADNDVSPSPSEPDTDAIKMFVGQIPRQWNETDCRRLFEKYGSVFSCNILRDKSTQASKGCCFVTFYHRKDAIEAQGALHNIKVIEGMHHPVQMKPADTENRNERKLFIGQLSKKHNEENLREIFAKFGHIEDCSVLRDQDGKSRGCAFVTFTNRSCAVVATKEMHHSQTMEGCSAPLVVKFADTQKDKDVKTKSMITGSGAGSPKGGAASLLQNLNPALLQQLGGGQNYQAVASLLSLINGQQGQQQQHQQQQNVLGILGTVLSALGKLTEGGDDASAKSSSEKPRHQALMTSPAPTATSSTSSSASHHHQQHQQQLSQQQQQQQHPQQQGLGNPLLGNPAMAAQNQFDAITMAQIAHQQQMLALQGFAVQQGAPSQQQQGLAGGMAGAKTTSPVAASLANHQQIALTPFAGGAAALDHFQAMQQYALLANLQATGGVGVQATTSAAQMVGNGDVKGPDGANLFIYHLPQDFGDSDLINTFAPFGGILSAKVFIDKVTNLSKCFGFVSYENAQSATNAISAMNGFQIGSKRLKVQLKVDRGNPYNR | not soluble
MSGEDDYNSDDEANKNLSKKELQELKRKQQKSKKKKESKKRAKATKQAEIETREEPKKEEENGDDLDVEIDYIGETIEIEPDNPHAQYFSAIFDAFKISTDSEDGFSYGHHVSKGEKKDDLGKVGQAERIIQEEMEERAKENTEEKLSRRKLRISLQPSIAKLKETTLRADVVEWADVTSRDPYLLVAMKSYRNSVPVPRHWNAKRKYLAGKRGFERPPFELPDFIKRTGIQDMREALLEKEESQSLKSKMRERARPKLGKIDIDYQKLHDAFFKWQTKPAMTKMGELYYEGKEMEAMMRDKKPGEMSDELRIALGMPIGSNAFKFPPPWLIAMQRYGPPPSFPHIKIPGLNAPIPEGCAFGYHAGGWGKPPVDEYGHPLYGDVFGLAAPAFEPEDESQIERRYWGEIGSDESSDEEESEEEEHADDDDADVEGGFQTPAPVEGMITPSGMTTGITGIETPDTIELRKGKESSVLGTDTPAAAYHIIPEKKNERIGGQMMASSHTYDLSKKHAVRDDGVQISLDPESIDMDEQGLAARYEEQLRKQKHRDDDDEDREDLTDMVAEHAAKQNRKRKVQDDKKNKTSSSSSSGSSGKKHKDFKF | not soluble
MSGFYNRGKMKFIHAADIHLGNPISGIDRKINLPEEVKKQIALATFTAFSNVIKLAVDRHVDFVLFPGDLFDSSQQSAYLYNFLNQQFQNLKEAGIEAFISFGNHDFQSDVENDFIWPENVHAFPKSKAKTFFHDSWDGKRVAITGTSFVVRNPRESLVPLYPSRDQSATYQIGMYHGSQGNSSANNYAPFSVGDLQALNYDYWALGHIHVRQVLSKNPAIVYSGDPQGLDLTETGEKGVYFVSDENDQGGLTAEFVPCSSFVFDSFELSINDQSAISNISDLIVQELLSFNHKKMSLNAIRVNLSASLPEKILDQLTDTSFLDLVNSKTIREKQFLIKMDLNVDQKKDNFNQLEERYWQAAKNDVFDEQSFNQALLRTFNSNQQFVIRHFTDPNVQAKLMSKAEQIISERIS | not soluble
MSGGSSRRYPPELRERAVRMVAEIRGQHDSEWAAISEVARLLGVGCAETVRKWVRQAQVDAGARPGTTTEESAELKRLRRDNAELRRANAILKTASAFFAAELDRPAR | soluble
MSGHFNYIVVGRGMMGAAAARHLAETVDGVALIGPGEPADIKSHQGVFASHYDEARITRTIDGDPDWALLANRSIARYADIAARSGVEFYAPVGCLMVGPERGGANPFVDDVLRAAARLGVSTELLGDQSLKSRFPYFSFEPGCEGVFERDNAGYVNPRALVKAQAILAEKAGVTLIDDIVVSTREEDGRASVQTASGAVYTAERVLVAAGGFSITRDLLPQPVGLDVYARTVAFFEIDEGDLGQYAGMPSLIYEPHDTTKHIYLLPPVRYPDGKFYLKIGGDPDDKRVGSDPEIREWFRSGGRESVRDHLSEIVGTLVPSVDHSRVSMAACVVSKTKSGYPAIGFTASPRIAVLTGGNGTAAKSSDEIGRLGAALLRDGKIADDAFSTDFKPEFL | not soluble
MSGNTVKLNVGGTVFETLKSTLTKHDGFFKALIETDVPAEKDDSNCFFIDRSPKHFETVLNYMRSGDVVLPDSKKDMLELKKEAEYYLLSNLAKLCQPPTDNFKTCTPEELMRVVANTDKKVIMINYLTYNGELVFYPWGFNLVHFLIQNRDYVEDVYFRRTESQYPEDGPFPNEKPYWTFLVYNSTRSGRRPFRHTVDLEDCMGHM | not soluble
MSGRRKGCSAATASSSSSSPPSRLPPLPGHARRPRRKRCLVPEVFCTRDLADLCVRRDYEGLRRYLRRFEGSCVSLGWPSQCIYVVGGEHSPHSLTEIDLEHCQNDFFGEFRALHLIGTVSHATCRYQVFVDAYGAVFAYDAQEDCLYELASDLAGFFAKGMIRCDPVHESICARLQPNVPLVHPDHRAELCRRSRASARGRYLRSLLAFRELLACEDTAARCAYVEAHREAQLTLIWPEKHSLVLRTARDLGLSASMLRRFQRSLYTREPVMPLGEIEGAEDKTFFHRVRILCGDTGTVYAALVGQDKLVRLARDLRGFVRVGLALLIDDFRYESIGPVDRSSLYEANPELRLPFKKRRLEHHHHHH | not soluble
MSHENQENYDDYNGDHDNKYDQQYDESSRGDDFGGRGRGFNGPPGGAGSFFGVPPAARGRGGPGMAPPGFAGRGRGFATPGMSSGFAPRGRGMPPGRGGYMPPYRGGYGVAPNGGPGAYGGPYNGGPGAYGAQAPGPNPQDQEQRLKRLSGCEEGQELWVETETAEGKKYFYHPVNRNTIWERPQNAKIVTQPELAQLIHRATEEEKNREERMPHGQIPQNPDDAWNEFNAPDGRKYYFNSITQENTWEKPKALIDQENGGGASPEPVQSAAIAEAQAKAQAALAAFMAQQKTSSNGGGGMPLSKAQASGAAAAAAVNAEAAKKKDSTRPISSTPVSGTPWCVVWTGDDKVFFYNPSTKCSVWERPPDTYGREDVDKLVQNPPSPKAEEENNQSKKESESESESDEDGPPKAKKSRAEKKKEALIAAQKKEKERPRQMLQKPVDPAIEAEMQAAKEREKVPLEERLKQFKEMLEEKNVSTSSTFEKELSKIVFDKRYLSLGATERRACFDAFCREKIESEKAERRKRVKEAKEEFQKLLAECELNGRSSYSSFTSKFGKDPRYKAVERNRDREDAFNDFVGELHKKEKDEKRAKKEKLKAAFVKLLEEQTGLTRKSKWSTTKKTLEDEERYIALDSSSTRESLFREFVANLGDETASDIEEEQEREKRLAAQTAIANRQKEVEAELGNQLRERTKESEKQKMGEHEDTYRNLLIDLIKSTENSWHEARRILRKDERYANCDMLDKTRKESLFDDHIKSLERKRREAFFQVLDNHEKITPMMRWRDAKKIIQDEEETFVKIASNSERKVERDFRDWQERRHDHLTDEFKEMLSETKIITHKSKKLMEEGEQHMDILSVLENDKRWVRMTAMSASERDRMLEDHIENLGRKGTPPPPTQQERDRRKQ | soluble
MSHFLVEKLTKTVGDKTVFQDISFIIHDFDRIGIIGVNGTGKTTLLDVLSGRLGFDGDHSPFSKANDYKIAYLTQDPEFNDAASVLDTVLSADVKAIQLIRQYELLMANYTEDKQESLESLMSEMDRLDAWSIESDVKTVLSKLGITDLEQKVGDLSGGMRRRVQLAQVLLGAADLLLLDEPTNHLDIDTIAWLTTYLKTAKKTVLFITHDRYFLDHVATRIFELDKAGLTEYQGNYQDYVRLKAEQDERDAANLHKKKQLYKQELAWMRTQPQARATKQQARINRFSDLKKEVHQDSSADKLEMTFETSRIGKKVIHFEDLSFAYGDRQLIKDFNLIIQNKDRIGIVGDNGVGKSTLLNIINGDLKPTSGKLDIGDTIRVGYFSQQLKDMDETKRVINYLQEVADEVKTSVGTTSISELLEQFLFPRSSHGTLIAKLSGGEKKRLYLLKLLIEKPNVLLLDEPTNDLDIATLKVLENFLANFAGPVITVSHDRYFLDKVATKILAFEEGDIRVFYGNYSDYLDEKVFEKETVEADLAKTTVTEEVPLPQKEERKRMSYLEKQEWAQIEDKIATIEANIEEIENQMLTVVSDYGQLAQLQKELDQRNNDLLLAYERFEYLSGLDI | not soluble
MSHSIEQLSINTIRTLSIDAIEKANSGHPGMPMGAAPMAYTLWTQFMKHNPNNPTWFNRDRFVLSAGHGSMLLYSLLHLSGYDVTMDDLKNFRQWGSKTPGHPEYGHTAGVDATTGPLGQGIATAVGMAMAERHLAAKYNRDAYNIVDHYTYAICGDGDLMEGVSAEASSLAAHLQLGRLVVLYDSNDISLDGDLNRSFSESVEDRYKAYGWQVIRVEDGNDIEAIAKAIEEAKADEKRPTLIEVRTTIGFGSPNKSGKSASHGSPLGVEETKLTKEAYAWTAEQDFHVAEEVYENFRKTVQDVGETAQAEWNTMLGEYAQAYPELANELQAAMNGLLPEGWEQNLPTYELGSKAATRNSSGAVINAIAESVPSFFGGSADLAGSNKTYMNNEKDFTRDDYSGKNIWYGVREFAMGAAMNGIALHGGLKTYGGTFFVFSDYLRPAIRLAALMQLPVTYVFTHDSIAVGEDGPTHEPIEQLAALRAMPNVSVIRPADGNESVAAWRLALESTNKPTALVLTRQDLPTLEGAKDDTYEKVAKGAYVVSASKKETADVILLATGSEVSLAVEAQKALAVDGVDASVVSMPSMDRFEAQTAEYKESVLPKAVTKRFAIEMGATFGWHRYVGLEGDVLGIDTFGASAPGEKIMEEYGFTVENVVRKVKEML | not soluble
MSHYDILQAPVISEKAYSAMERGVYSFWVSPKATKTEIKDAIQQAFGVRVIGISTMNVPGKRKRVGRFIGQRNDRKKAIVRLAEGQSIEALAGQA | soluble
MSIDIKYLSRIDIDREEFFFKDSRLMCKKFDEEREVLTLLEFDTKFRVNLLKKDKVYKYFLVSDANHKLLIANLVTEQQAKDLSFIEKDIMKIASSATAYGASDIHFIREDRICKIKFRVNGTMIDYREILSSEADALMFVLYNVMATTKETTWNRKLPQDANIILVINEKAYRFRYAHMPLFGEGGKNYHAVVRIIYPSNNFVCTNYQDIGYNEADTDAIARILNTSYGLFIVSGTTGSGKSTSLKKYIELLFFNKYKGKGCFVTVEDPVEYLISGAQQSSIVADNDDKTKNPFADAVRSAMRRDPDVIMIGEIRDKPTVEALSSAVESGHYCLTTIHAGSVVSVLQRLSGLGMKADKIASPGFLAGITSQKLIPELCPSCKVSFVDERYQRAVFSANENGCEACNHSGFKGRLLLLETLVPTVEDLELVASENWVSLYRKYRERRFIKTGKKGLGEGFSIKDKAYYNVLKGKVCHEYFMLHFGQLDHEDENIIYENYLQEV | not soluble
MSIHSASPIIRRKSRKIWVGNVPVGGDAPIAVQSMTNTETCDVAATVAQIRRLEDAGADIVRVSVPDMDAAEAFGKIKQQVNVPLVADIHFDYRIALRVAELGVDCLRINPGNIGREDRVKAVVDAARERNIPIRIGVNAGSLEKDLQKKYGEPTPEALLESAMRHVDHLDKLDFQNFKVSVKASDVFMAVAAYRLLARQIEQPLHLGITEAGGLRSGTVKSAVGLGMLLAEGIGDTIRISLAADPVEEIKVGFDILKSLHLRSRGINFIACPSCSRQNFDVVKTMNELEGRLEDLLVPMDVAVIGCVVNGPGEAKEAHVGLTGGTPNLVYIDGKPSQKLTNDNLVDELERLIRQKAAEKAEADASLIARG | not soluble
MSIMKQRLPLGEFSSSKINKLAIANIADASEPRNHGENNVGTVCLPSIKSLMVSPEVYENTKSLPVPLMRSSGGGMACASKSSCQDGISTKTTSRDYSELSKKLQIRLQFAYYKYKTKQTDKNFTDLKSKHSITRPSKVATHSKSEPLTRRRKLVLSQGHYKTPARSKIKTPSSICSHDNTSSFTSFRGVSESSSTTADMNVADTTTPIRNNINTKHSNSHNRTLYQRQETPTSIKAAKSLIHLFTSNQ | not soluble
MSITQYLTEEHRKCDQIYAEVEKAVNEGNWEKAKELFKEFKEKTLLHFKKEEEVLFPEFEQRTGIVMGPTQVMRMEHDQARELLERMEKALEEKNKDEFLSLGESLMILIQQHNMKEEQILYPMSDQNLNAEKMVSKMAELGEV | not soluble
